# Assay: yeast display, Sf9 membrane polyspecificity reagent, FACS + sequencing; frameworks hold sequencing errors
# How it was run: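 In a synthetic yeast display library (Saccharomyces cerevisiae BJ5465), nanobody expression was induced with galactose for 36–48 hours. FACS gates were set low and high (top ~1%) using anti-HA fluorescence for expression and streptavidin fluorescence for binding of the Sf9 membrane reagent. Each polyreactivity label is drawn from the gate of origin.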
row,Sequence,polyreactivity (PSR sort gate)
1,QVQLVESGGGLVQAGGSIRLTCAASGSTFGKYAMGWYRQAPGKERELVARIDSGDGTYYADSLKGRFTISRDNAKNTVYLKMNSLKAEDTAVYYCAAGYGARRLTYFWPQYARYDYWGQGTQVTVSS,high polyreactivity
2,QVQLVESGGGLVQAGGSLCLSCAASGFIFEFYTMGWYRQAPGKERELVAAITNGDSTNYADSVKGRFTISRDNAKNTVYLQMNSLKPEDTAVYYCAADGKGETEYSSHPGWAFDYWGQGTQVTVSS,low polyreactivity
3,QVQLVESGGGLVQAGGSLCLSGAASGITFRFYAMGWYRQAPGKERELVAAISWSGGRTYYADSVKWRFTISRDNAKNTVYLQMNSLKPEDTAVYYCAAVASSVPGYDYWGQGTQVTVSS,low polyreactivity
4,QVQLVESGGGLVQAGGSLGLNCAASGFTFRVNAMGLYSQAPGKEREFVAAITASGGSTYYADSVKGRFTISRDNAKNTVYLLMNSLKPVDTAVYYCAADWWIYWYPDTGDYWGQRTQVTVSS,high polyreactivity
5,QVQLVESGGGLVQAGGSLGLSCAASGRTIDYYALGWYRQAPGKERELVAAITWDGSTYYADSVKGRFTISRDNAKITVYLQMISLKPEVTAVYYCAADFYWYLDLYDFWGQGTQVTVSS,high polyreactivity
6,QVQLVESGGGLVQAGGSLGLSCAASGSTFGFYTMGWYRQAPGKERELVATISYSGGDTYYEDSVKGRFTISRDNAKNTVYFQMNSLKPEYTAVYYCAADLGDYVTTYSWLDSWGQGTQVTVSS,low polyreactivity
7,QVQLVESGGGLVQAGGSLGLTCAASGFIFLDYTMVWYRQAPGIERELVATINASDGSTYYADSVKGRFTISRDNAKKTVYLQMNSLKPEDTAVYYCNTKVISRTSERRGNGFTRYDYWGQGTQVTVSS,low polyreactivity
8,QVQLVESGGGLVQAGGSLLLICAASGSTFPYNAMGWYRQAPGKQRELVASITSRGGSTYYADSVKGRFTISRDNAKNTVYLQMNSLKPQDTAVYYCATPGDTYGWTRRRYYYWGQGTQVTVSS,high polyreactivity
9,QVQLVESGGGLVQAGGSLLLSCAASGFIFVSYAMGWYRQAPGKERELVAAIDRIGGITYYADSVKGRFTISRDNAKNTVYLQMNSLKREDTAVYYCAAAARFATVRVGREYYWGQGTQVTVSS,low polyreactivity
10,QVQLVESGGGLVQAGGSLLLSCAASGFILYSYAMGWYRQAPGTEREFVSVISRGGGRTYYADSVKGRFTISRDNAKNTVYLQMNCLKPDDTAVYYCAATPSNVYAYEYWGQGTQVTVSS,low polyreactivity
11,QVQLVESGGGLVQAGGSLLLSCAASGFTFLWYDMGWYRQSPGKERELVAAIDASDGSTYYADSVKGRFTISRDNAKNTVYLQMNSLKPEDTAVYYCAVAAGYFGKWTYYYWGQGTQVTVSS,high polyreactivity
12,QVQLVESGGGLVQAGGSLLLSCAASGIIFGTNALGWYRQAPGKERELVAAITWSGGNTTYADSVKGRFTISRDNAKNTVYLQMNSLKPEDTAVYYCAADFTRAGDYDYWGQGTQVTVSS,low polyreactivity
13,QVQLVESGGGLVQAGGSLLLSCAASGLIFSGYAMGWYRQAPGKERELVAAISRTVGTTYYADSVKGRFTISRDNGKNPVYLQMNSLKPEDTAVYYCAARGRATLYDYWGQGTQVTVSS,high polyreactivity
14,QVQLVESGGGLVQAGGSLLLSCAASGLIFYPYAMGWYRQAPGKEREFVAAITWSGGSTRYADSVKGRFTISRDNAKNTVYLQMNSLKPEDTAVYYCAARYIWWYDYTYTGLDYWGQGTQVTVSS,high polyreactivity
15,QVQLVESGGGLVQAGGSLLLSCAASGNTFYKYTMGWYRQAPGKERELVAVISSSSGSTYYADSVKGRFTISRDNAKNTVYLQMNSLKPEYTAVYYCKKRGWWDLRHYYWGQGTQVTVSS,low polyreactivity
16,QVQLVESGGGLVQAGGSLLLSCAASGRIFDVYALGWYRQAPGTEREWVAAITWRVGSTYYADSVKGRFTISRDTAKNTVYLQMNSLKPEDTAVYYCAVDSFLVYSAVRPYDYWGQGTQVTVSS,low polyreactivity
17,QVQLVESGGGLVQAGGSLLLSCAASGRIFWHNTMGWYRQAPGKERELVAGISVSGGSTYYADSVKGRFTISRDNAMNTVYLKMNSLKPEDTAVYYCAARKVTSWKAHFRFDYWGQGTQVTVSS,low polyreactivity
18,QVQLVESGGGLVQAGGSLLLSCAASGRTFSRNAMGWYRQAPGKERELVASIRSGGTTNYADSVKGRFTISRDNAKNTVYLQMNSLKPEVTAVYYCNAGDTFLDPCSQYLFDYWGQGTLVTVSS,low polyreactivity
19,QVQLVESGGGLVQAGGSLLLSCAASGRTFYVYAMGWYRQAPGKERELVAAITSGGRTYYADSVKGRFTISRDNAKNTVYLQMNRLKPEDTAVYYCNARRTSRSYSFNYWGQGTQVTVSS,high polyreactivity
20,QVQLVESGGGLVQAGGSLLLSCAASGSIFFYAMGSYRQAPGKERELVADITYTGGSKYADSVKGRFTISRDNAKNTVYLQMNSLKPEDTAVYYCAKLDGGLFDYWGQGTQVTVSS,low polyreactivity
21,QVQLVESGGGLVQAGGSLLLSCAASGSIFSIYAMGWYRQAPGKERELVAAISSSGRTYYADSVKGRFTISRDNAKNTVYLQMNSLKPEDTAVYSCNRVREGKHYYYWGQGTQVTVSS,high polyreactivity
22,QVQLVESGGGLVQAGGSLLLSCAASGSIFVRNTMGWYRQAPGKERELVAAITSSGGTTYYADSVKGRFTISRDNAKNTVYLQMNSLKPEDTAVYYCAARYGYWGQGTQVTVSS,high polyreactivity

row,Sequence,polyreactivity (PSR sort gate)
1,QVQLVESGGGLVQAGGSLLLSCAASGSIYVNNAMGWYRQAPGKERELVAAISRSGGSTYYADSVKGRFTISRDSAKKTVYLQMNSLKPEDTAVYYCATVHRSSTPPEFNYSGQGTQVTVSS,high polyreactivity
2,QVQLVESGGGLVQAGGSLLLSCAASGSTFPHYTMGWYSQAPGKEREWVAVISRSGRTYYADSVKGRFTISRDNAKNTVYLQMNSLKPEDTAVYYCAVLVGRLVWSYNHWGQGTQGTVSS,high polyreactivity
3,QVQLVESGGGLVQAGGSLLLSCAASGSTFSYYGMGWYRQAPVKERELVAAIDYSGDSTYYADSVKGRFTISRDNSKNTVFLQMNSLKPEDTAVYYCAADDYPWNRYEYWGQGTQVTVSS,low polyreactivity
4,QVQLVESGGGLVQAGGSLLLSSAASGIIFNQYAMGWYRQAPGKERELVATISSGGARTYYADSVKWRFTISRDNAKNTVYLQMNSRKPEDTAVYFCNRRVPYSFYSRGYYYWGQGTQVTVSS,high polyreactivity
5,QVQLVESGGGLVQAGGSLPLSCAASGGTFYKYAMGWYRQAPGKERELVARISRGGSTYYADSVKGRFTISRDNAKNTVYLQMTSLKPEDTAVYYCAKLWYAVWPIVVQYNYWGQGTQVNVSS,high polyreactivity
6,QVQLVESGGGLVQAGGSLPLSCAASGRIFVVYAMGWYRQAPGKERDLVAGISWTDGRTYYADSVKGRFTISRDNAKNTVYLLMNSLKPEDTAVYYCNKARTSQYHHTYWRTYGYWGQGTQVTLSS,low polyreactivity
7,QVQLVESGGGLVQAGGSLPLSCAASGRTFGSYVMRWYRQAPGKERELVATISRRGGTTYYADSVKGRFTISRDNAKNTVYLQMNSLKPEDTAVYYCAAKYFATRYDYWGQGTQVTVSS,high polyreactivity
8,QVQLVESGGGLVQAGGSLPLSCAASGRTIYRYAMGSYRQAPGKERELDAAIRRSGDSTYYADSVKGRFTISRDIAKKTVYLQMNSLKPEDTAVYYCNAVASGRTYDYWGQGTQVTVSS,high polyreactivity
9,QVQLVESGGGLVQAGGSLPLSCAASGSIFFFNAMGWYRQATGKEREFVAAITSSSGRTYYADSVKGRFTISRDNANNTVYLQMNSLKPEDSAVYFCAAQVPEDTETVDYWGQGTQVTVSS,low polyreactivity
10,QVQLVESGGGLVQAGGSLPLSCAASGSIFKPYAMGWYRQAPGKERELVAVISWRGGSTYYADSVKGRFTISRDNAKNTVYLQMNSLKPEDTAVYYCAARRYRYFDGTVPLDYWGQGTQVTVSS,high polyreactivity
11,QVQLVESGGGLVQAGGSLPLSCAASGSTFGYNAMGWYRQAPGKERELVAAITWTGASTYYADSVKGRFTISRDNAKNTVYLQMNSLKPEDTAVYYCNARFGKRGYSPPYDYWGQGTQVTVSS,low polyreactivity
12,QVQLVESGGGLVQAGGSLPLSCAASGSTFSYYAMGWYRQAPGKERELVAAITSGGSTYYADSVKGRFTISRDNAKNTVYLQMNSLKPEDTAVYYCNAEPYTSSGGYRAYDFDYWGQGTQVTVSS,low polyreactivity
13,QVQLVESGGGLVQAGGSLPLSCASYGSIIVGNVMGWYRQAPGKESELVAAMTSSGTSTFYADSVKGRFTNSRDIAKNTVYLQMNSLKPEVTAVYYCAVDLYWSYFNGSLGYRYYFWGQGTQLTVSS,high polyreactivity
14,QVQLVESGGGLVQAGGSLPLSGAPSGSTFGYNTMGWSRQAPGKESELVAAITSGGRTYYADSVKGRFTISRDNAKNTVYLQRNSLKPEDTAVYYCAAYYWWGYPENDYWVQGTQVTVSS,high polyreactivity
15,QVQLVESGGGLVQAGGSLPLSSAASGLIFSWYAMGWYRQAPAKDSELVAAIDQSGDSTYYADSVKGRFTISRDNAKNTVYLQMNSLKPEDTAVYYCAAQSYDYWYDYDYWGQGTQVTVSS,high polyreactivity
16,QVQLVESGGGLVQAGGSLPLTCAASGLTFYDYPMGWYRKATVKERELVAAIRRSGTRTYYADSVKGRFTISRDYAKNTVYLQMNSLKPEDTAVYYCNTVRRLKRYSSYGHDYWGQGTQVTVSS,high polyreactivity
17,QVQLVESGGGLVQAGGSLRFSCAAPGTIFPRYAMGWYRQAPGKERELVAAISRSGGSTYYADSVKGRFTISRDNAKNTVYLQMNSLKPEDTAVYYCATDKVSHRRYDYWGQGTQVTVSS,high polyreactivity
18,QVQLVESGGGLVQAGGSLRFSCAASGGIFWHYTMGWYRQAHGKERELVAAITRRGGSTYYADSVKGRFTISRDNAKNTVYLQINSLKPEDTAVYYCAADFLPQSYNWYDYWGQGTQVTVAS,low polyreactivity
19,QVQLVESGGGLVQAGGSLRFSCAASGGTFGYNAMGWYRQAPGKDRELVARISWRGASTYYADSVKGRFTLSRDNAKNTVYLQMNSLKPEDTAVYYCAAYSFNYQPAYAYRGEDYWGQGTQVTVSS,low polyreactivity
20,QVQLVESGGGLVQAGGSLRFSCAASGITFTEYAMGWYTQAPGTERELVAAITGSGTSTYYADSVKGRFTISRDNAKNTVYLHMNSLKPEDTAVYYCAARTRGTAYNYWGQGTQVTVSS,high polyreactivity
21,QVQLVESGGGLVQAGGSLRFSCAASGITFVDYAMGWYRQAPGKEREFVAGISESGGSTYYADSVKGRFTISRDNAKNTVYLQMNSLKPEDTAVYYCAADPYVDSYDSWGQGTQVTVSS,low polyreactivity

# From the nanobody polyreactivity screen of Harvey et al. (2022)
